Test results from publication PMC7618510, “The accessory protein MRAP2 directly interacts with melanocortin-3 receptor to enhance signaling” (Science signaling, 2025).

What was measured:
[1] = target: T1, HA-Halo-MC3R (melanocortin-3 receptor) (human, UniProt P41968 1-323, CA-Sulfo646 dye on the Halo tag (SiMPull)); assay: single-molecule pull-down (SiMPull) with photobleaching step counting; two colours: lysate of HEK293 cells cotransfected with 300 ng HA-Halo-tagged and 600 ng FLAG-CLIP-tagged plasmid, labelled at the surface with CA-Sulfo646 and BC-DY547, lysed in 0.5% LMNG/0.05% CHS; HA-tagged protein immobilised on HA antibody; co-localised spots and bleaching steps counted by TIRF; details: partners not purified
T1 construct: melanocortin-3 receptor (MC3R), human; S14 and the UBIRA repository (DOI 10.25500/edata.bham.00001385); also called ss-HA-Halo-MC3R; source: HEK293 (AD-293), transiently transfected, in lysate (LMNG-CHS) or in cells; not shown: HA, N-terminal, kept; Halo, N-terminal, kept

[2] = target: the molecule itself; assay: single-molecule pull-down (SiMPull) with photobleaching step counting; one colour: HEK293 cells expressing the HA-Halo-tagged protein alone, labelled at the surface with membrane-impermeable CA-Sulfo646, lysed in 0.5% LMNG/0.05% CHS, immobilised by the HA tag on slides with biotinylated HA antibody, single molecules imaged by TIRF

T1 sequence (P41968 whole entry): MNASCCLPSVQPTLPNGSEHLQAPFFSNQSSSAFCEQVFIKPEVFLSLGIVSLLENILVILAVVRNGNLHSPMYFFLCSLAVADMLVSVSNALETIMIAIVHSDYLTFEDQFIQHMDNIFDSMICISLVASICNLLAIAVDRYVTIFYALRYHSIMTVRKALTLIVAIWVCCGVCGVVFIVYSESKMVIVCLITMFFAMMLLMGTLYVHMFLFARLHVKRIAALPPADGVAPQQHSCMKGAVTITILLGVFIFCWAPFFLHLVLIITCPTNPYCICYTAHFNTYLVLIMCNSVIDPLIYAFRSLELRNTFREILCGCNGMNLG

| Binder | stoichiometry N [1] [MRAP2 per MC3R] | stoichiometry N [2] |
| --- | --- | --- |
| FLAG-CLIP-MRAP2 (melanocortin-2 receptor accessory protein 2) (natural protein, human, UniProt Q96G30 1-205, looked up, BC-DY547 (CLIP-surface 547) dye on the CLIP tag, melanocortin-2 receptor accessory protein 2 (MRAP2), human; S14 and the UBIRA repository; also called ss-FLAG-CLIP-MRAP2; source: HEK293 (AD-293), transiently transfected, in lysate (LMNG-CHS); not shown: FLAG, N-terminal, kept; CLIP, N-terminal, kept) MSAQRLISNRTSQQSASNSDYTWEYEYYEIGPVSFEGLKAHKYSIVIGFWVGLAVFVIFMFFVLTLLTKTGAPHQDNAESSEKRFRMNSFVSDFGRPLEPDKVFSRQGNEESRSLFHCYINEVERLDRAKACHQTTALDSDVQLQEAIRSSGQPEEELNRLMKFDIPNFVNTDQNYFGEDDLLISEPPIVLETKPLSQTSHKDLD | 1 |  |
| mGluR2 (receptor, UniProt P31421 19-872, looked up, metabotropic glutamate receptor 2 (mGluR2); also called dimeric GPCR mGluR2) EGPAKKVLTLEGDLVLGGLFPVHQKGGPAEECGPVNEHRGIQRLEAMLFALDRINRDPHLLPGVRLGAHILDSCSKDTHALEQALDFVRASLSRGADGSRHICPDGSYATHSDAPTAVTGVIGGSYSDVSIQVANLLRLFQIPQISYASTSAKLSDKSRYDYFARTVPPDFFQAKAMAEILRFFNWTYVSTVASEGDYGETGIEAFELEARARNICVATSEKVGRAMSRAAFEGVVRALLQKPSARVAVLFTRSEDARELLAATQRLNASFTWVASDGWGALESVVAGSERAAEGAITIELASYPISDFASYFQSLDPWNNSRNPWFREFWEERFHCSFRQRDCAAHSLRAVPFEQESKIMFVVNAVYAMAHALHNMHRALCPNTTHLCDAMRPVNGRRLYKDFVLNVKFDAPFRPADTDDEVRFDRFGDGIGRYNIFTYLRAGSGRYRYQKVGYWAEGLTLDTSFIPWASPSAGPLPASRCSEPCLQNEVKSVQPGEVCCWLCIPCQPYEYRLDEFTCADCGLGYWPNASLTGCFELPQEYIRWGDAWAVGPVTIACLGALATLFVLGVFVRHNATPVVKASGRELCYILLGGVFLCYCMTFVFIAKPSTAVCTLRRLGLGTAFSVCYSALLTKTNRIARIFGGAREGAQRPRFISPASQVAICLALISGQLLIVAAWLVVEAPGTGKETAPERREVVTLRCNHRDASMLGSLAYNVLLIALCTLYAFKTRKCPENFNEAKFIGFTMYTTCIIWLAFLPIFYVTSSDYRVQTTTMCVSVSLSGSVVLGCLFAPKLHIILFQPQKNVVSHRAPTSRFGSAAPRASANLGQGSGSQFVPTVCNGREVVDSTTSSL |  | 2 |
